What is called EC50 is the midpoint of the concentration-response curve. In general, Kd refers to the free concentration of one partner at which half of the binding sites on the other are occupied at equilibrium, for simple one-to-one binding.

In test [1] the target is T1, Human TROP2 ECD (31-274 AA), biotinylated (human, UniProt P09758 31-274, biotinylated (site not stated)).
T1 construct: the entry is already residues 31-274; also called Human TROP2-biotin; hTROP2-Biotin
T1 sequence: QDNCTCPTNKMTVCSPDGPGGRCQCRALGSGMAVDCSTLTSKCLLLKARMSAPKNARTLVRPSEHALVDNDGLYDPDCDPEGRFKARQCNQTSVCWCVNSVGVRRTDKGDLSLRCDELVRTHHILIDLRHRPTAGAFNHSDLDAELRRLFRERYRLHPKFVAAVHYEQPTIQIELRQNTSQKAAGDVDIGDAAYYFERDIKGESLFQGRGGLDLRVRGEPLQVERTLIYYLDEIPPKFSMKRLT
The test can be described thus: ELISA, immobilized TROP2, HRP secondary antibody.

In test [2] the target is T2, Human TROP2 full length, on tumor cells (HCT116, MDAMB231, NCI-H292) (human, UniProt P09758 31-323).
T2 sequence: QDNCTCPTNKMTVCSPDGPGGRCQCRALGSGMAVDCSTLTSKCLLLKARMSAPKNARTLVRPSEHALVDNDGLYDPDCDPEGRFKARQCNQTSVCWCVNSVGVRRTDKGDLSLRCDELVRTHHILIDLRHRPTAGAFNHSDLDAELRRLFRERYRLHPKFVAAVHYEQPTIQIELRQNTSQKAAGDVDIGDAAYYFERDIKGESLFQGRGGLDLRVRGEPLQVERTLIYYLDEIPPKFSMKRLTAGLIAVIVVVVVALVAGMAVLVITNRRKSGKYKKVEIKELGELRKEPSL
Kind of test: cell-based or functional assay.

The target of test [3] is T2, Human TROP2 full length, on tumor cells …. The test can be described thus: cell-based or functional assay. The source holds these as a separate data set.
Test [4] shares this target. Kind of test: cell-based or functional assay. This is another data set of the same source.
Test [5] has the same target. The test can be described thus: cell-based or functional assay. This is another data set of the same source.
In test [6] the target is T3, human CD3 epsilon, biotinylated (human, UniProt P07766 23-126, limits assumed, biotinylated (site not stated)).
T3 construct: Printed in places as CD36, CD38, CD3c or CD3&; also called CD3e-bio; human CD3e-biotin
T3 sequence (P07766 23-126 limits assumed): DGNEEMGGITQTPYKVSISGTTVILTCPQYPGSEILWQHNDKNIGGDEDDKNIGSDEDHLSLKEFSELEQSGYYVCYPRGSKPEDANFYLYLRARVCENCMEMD
The test can be described thus: BLI, CD3e-biotin on sensor (summary). (In general: BLI is a label-free optical method that tracks binding on a fibre tip over time.)

Test [7] concerns the target T3, human CD3 epsilon, biotinylated. Kind of test: BLI, CD3e-biotin on sensor, 50 nM TCE.
Test [8] concerns the target T1, Human TROP2 ECD (31-274 AA), …. The test can be described thus: TROP2 binding ELISA; the table's head prints only 'EC50', the unit is that of the axis Log [TCE nM]. In general terms: An ELISA detects its analyte on a solid surface through an enzyme-linked reagent.
The target is the same in test [9]. Kind of test: TROP2 binding ELISA, biotinylated TROP2 on neutravidin plates.
For test [10], the target named is T2, Human TROP2 full length, on tumor cells …. Kind of test: cell-based or functional assay. The source holds these as a separate data set.
Test [11] concerns the target T4, Cynomolgus monkey TROP2 full length, on recombinant HEK293 cells (cynomolgus monkey, UniProt P09758 31-323 (human entry)).
T4 chain: T2 sequence with M32V, S63N, I200V, M262V, T268S
The test can be described thus: cell-based or functional assay.

The target of test [12] is T3, human CD3 epsilon, biotinylated. Kind of test: CD3 binding ELISA.
In test [13] the target is T2, Human TROP2 full length, on tumor cells …. Kind of test: cell-based or functional assay. The source holds these as a separate data set.
The target of test [14] is T5, Cyno CD3 (Antigen was biotinylated for capture on neutravidin plates; the site of biotin and any tag are not stated.).
T5 construct: also called cynomolgus monkey CD3
T5 chain: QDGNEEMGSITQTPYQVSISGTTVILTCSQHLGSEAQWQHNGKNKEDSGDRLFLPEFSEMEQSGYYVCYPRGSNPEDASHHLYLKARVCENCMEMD
Kind of test: Cyno CD3 binding ELISA.

Test [15] concerns the target T3, human CD3 epsilon, biotinylated. The test can be described thus: Human CD3 binding ELISA.

Numbering of substitutions follows the chain as printed. Numbers in names are those of the source. Like-named read-outs stand apart in the source and are kept apart here.

B1: TCE-4 (TROP2 Fab HC F108A TCE, scFv on the Fab LC) (bispecific antibody)
light: not shown
heavy: QVQLQQSGSELKKPGASVKVSCKASGYTFTNYGMNWVKQAPGQGLKWMGWINTYTGEPTYTDDFKGRFAFSLDTSVSTAYLQISSLKADDTAVYFCARGGFGSSYWYADVWGQGSLVTVSSASTKGPSVFPLAPSSKSTSGGTAALGCLVKDYFPEPVTVSWNSGALTSGVHTFPAVLQSSGLYSLSSVVTVPSSSLGTQTYICNVNHKPSNTKVDKKVEPKSC
notes: Description names HisTag AviTag on the HC
As for B1, the EC50 in [1] turned out to be 7300 pM. In test [2], the “TCE Cytotoxicity EC50, H292 + CD8+ T cells” value was determined as 0.4 pM; the “TCE Cytotoxicity EC50, HCT116 + CD8+ T cells” value is 18.3 pM; the “TCE Cytotoxicity EC50, MDAMB231 + CD8+ T cells” value stood at 6.3 pM.

B2: TCE-9 (anti-CD3 scFv wt + linker + anti-TROP2 HC wt; anti-TROP2 LC wt) (bispecific antibody)
light: DIQLTQSPSSLSASVGDRVSITCKASQDVSIAVAWYQQKPGKAPKLLIYSASYRYTGVPDRFSGSGSGTDFTLTISSLQPEDFAVYYCQQHYITPLTFGAGTKVEIKRTVAAPSVFIFPPSDEQLKSGTASVVCLLNNFYPREAKVQWKVDNALQSGNSQESVTEQDSKDSTYSLSSTLTLSKADYEKHKVYACEVTHQGLSSPVTKSFNRGEC
heavy: not shown
On to B2, for which the “H292 Cytotox EC50” value in test [3], in test [4] and in test [5] was 0.7 pM throughout.

B3: TCE-35 (anti-CD3 scFv with P41S, A49G, N87S, L150F, T151S, G163R, P175A, K181T, T200V, A202D, L208I, G211N, L217I, S218T, V220A, P222A, E223D, A226S, E227D; … (bispecific antibody)
light: B2 light
heavy: EVQLVESGGGLVQPGGSLKLSCAASGFTFNKYAMNWVRQASGKGLEWVGRIRSKYNNYATYYADSVKDRFTISRDDSKNTAYLQMNSLKTEDTAVYYCVRHGNFGNSYISYWAYWGQGTLVTVSSGGGGSGGGGSGGGGSQTVVTQEPSFSVSPGGTVTLTCRSSTGAVTSGNYANWVQQTPGQAPRGLIGGTKFLAPGVPDRFSGSILGNKAALTITGAQADDESDYYCVLWYSNRWVFGGGTKLTVLGGGGSQVQLQQSGSELKKPGASVKVSCKASGYTFTNYGMNWVKQAPGQGLKWMGWINTYTGEPTYTDDFKGRFAFSLDTSVSTAYLQISSLKADDTAVYFCARGGFGSSYWYFDVWGQGSLVTVSSASTKGPSVFPLAPSSKSTSGGTAALGCLVKDYFPEPVTVSWNSGALTSGVHTFPAVLQSSGLYSLSSVVTVPSSSLGTQTYICNVNHKPSNTKVDKKVEPKSC
In the case of B3, the “H292 Cytotox EC50” value in test [5] was determined as 0.5 pM.

B4: TCE-32 (anti-CD3 scFv W238A, anti-TROP2 wt) (bispecific antibody)
light: B2 light
heavy: not shown
As for B4, in test [6], the “CD3 Octet response” value worked out at 0.07 and the dissociation constant Kd was determined as 31000 pM. For the same molecule, the “H292 Cytotox EC50” value in test [3] was above 1000 pM. In test [7], this molecule returned a dissociation constant Kd of 31000 pM and a Response of 0.0683.

B5: TCE-7 (TROP2 Fab HC F108A TCE, scFv on the Fab HC) (bispecific antibody)
light: B2 light
heavy: not shown
notes: Description names a HisTag on the HC
B5 had an EC50 in test [1] of 1400 pM. Also, in [2], the “TCE Cytotoxicity EC50, H292 + CD8+ T cells” value was 5.6 pM; the “TCE Cytotoxicity EC50, HCT116 + CD8+ T cells” value turned out to be 206 pM; the “TCE Cytotoxicity EC50, MDAMB231 + CD8+ T cells” value turned out to be 47.8 pM.

B6: TCE-45 (anti-CD3 scFv F104A, anti-TROP2 HC D109A) (bispecific antibody)
light: B2 light
heavy: not shown
The molecule B6 showed an EC50 in test [8] of 893 pM.

B7: TCE-43 (anti-CD3 scFv wt, anti-TROP2 HC D109A) (bispecific antibody)
light: B2 light
heavy: not shown
In test [9], B7 had a concentration giving a half-maximal response (EC50) of 1070 pM. Further, the “H292 Cytotox EC50” value in test [10] was determined as 1 pM. Besides, the “CynoTROP2 + HEK293 cells Cytotox EC50” value in test [11] worked out at 0.1 pM.

B8: TCE-44 (bispecific antibody)
light chain (anti-TROP2 LC wt): B2 light
heavy chain (anti-CD3 scFv H101A + linker + anti-TROP2 D109A HC): not shown
notes: also called anti-CD3 scFv (H101A) + linker + anti-TROP2 (D109A) HC; anti-TROP2 LC wt
On to B8, for which the 50% effective concentration (EC50) in test [12] was found to be 594 pM; in test [8] it was 1380 pM.

B9: TCE-46 (bispecific antibody)
light chain (anti-TROP2 LC wt): B2 light
heavy chain (anti-CD3 scFv F240A + linker + anti-TROP2 D109A HC): not shown
notes: also called anti-CD3 scFv (F240A) + linker + anti-TROP2 (D109A) HC; anti-TROP2 LC wt
B9 had an EC50 in test [12] of 1100 pM.

B10: TCE-40 (anti-CD3 scFv F240A, anti-TROP2 HC F108A) (bispecific antibody)
light: B2 light
heavy: not shown
With B10, in test [13], the “HCT116 Cytotox EC50” value was above 3000 pM. Moreover, the EC50 in test [14] amounted to 482 pM; in test [15], 531 pM. Further, in test [11], the “CynoTROP2 + HEK293 cells Cytotox EC50” value was found to be 5 pM.

B11: TCE-42 (anti-CD3 scFv with N30Q, I109V, G172A, V231A; anti-TROP2 HC F108A) (bispecific antibody)
light: B2 light
heavy: not shown
Regarding B11, in test [14], the EC50 came out at 354 pM.

B12: TCE-36 (anti-CD3 scFv with N30Q, I109V, G172A, V231A; anti-TROP2 wt) (bispecific antibody)
light: B2 light
heavy: not shown
In test [7], B12 returned a Kd of 9110 pM and a Response of 0.931. The “H292 Cytotox EC50” value in [5] is 2.1 pM.

B13: TCE-27 (anti-CD3 scFv W233A, anti-TROP2 wt) (bispecific antibody)
light: B2 light
heavy: not shown
Consider B13, for which, in test [6], the “CD3 t1/2” value was 6.45 min and binding was characterised by a dissociation constant (Kd) of 12300 pM. The “H292 Cytotox EC50” value in test [3] is above 1000 pM. For the same molecule, in test [7], the Kd was 12300 pM and the Response stood at 0.414.

B14: TCE-31 (anti-CD3 scFv R237A, anti-TROP2 wt) (bispecific antibody)
light: B2 light
heavy: not shown
Consider B14, for which, in test [6], the “CD3 Octet response” value was 0.73, the “CD3 t1/2” value is 2.67 min and binding was characterised by a dissociation constant (Kd) of 6510 pM. In [7], this molecule came in with a Kd of 6510 pM and a Response of 0.728.

B15: TCE-38 (anti-CD3 scFv H101A, anti-TROP2 HC F108A) (bispecific antibody)
light: B2 light
heavy: not shown
Regarding B15, the EC50 in [9] is 1280 pM.

B16: TCE-33 (anti-CD3 scFv V239A, anti-TROP2 wt) (bispecific antibody)
light: B2 light
heavy: not shown
For B16, in test [6], the “CD3 Octet response” value was determined as 0.74 and the “CD3 t1/2” value stood at 4.26 min. In [7], this molecule gave a Response of 0.742.

B17: TCE-37 (anti-CD3 scFv wt, anti-TROP2 HC F108A) (bispecific antibody)
light: B2 light
heavy: not shown
As to B17, the “HCT116 Cytotox EC50” value in test [13] is 109 pM. Besides, the half-maximal effective concentration (EC50) was 1150 pM in test [9] and 184 pM in [14]. In addition, the “H292 Cytotox EC50” value in test [10] came out at 5 pM. Moreover, in test [11], the “CynoTROP2 + HEK293 cells Cytotox EC50” value stood at 0.2 pM.

B18: TCE-30 (anti-CD3 scFv N236A, anti-TROP2 wt) (bispecific antibody)
light: B2 light
heavy: not shown
Take B18: in test [6], the “CD3 Octet response” value was 0.65 and the “CD3 t1/2” value came out at 2.45 min. In test [7], this molecule displayed a Response of 0.65.

B19: TCE-39 (anti-CD3 scFv F104A, anti-TROP2 HC F108A) (bispecific antibody)
light: B2 light
heavy: not shown
Regarding B19, the concentration giving a half-maximal response (EC50) came to 1020 pM in test [9], 671 pM in test [14] and 761 pM in test [15].

Source of the values: patent US20250154278A1 (JANUX THERAPEUTICS, published 2025).
